Read-outs that look alike come from different tables or passages of the source. No end group written: not given here.
Experiments:
human Y4 receptor [1] = target: T1, human Y4 receptor (human, UniProt P50391 1-375); test: 125I-PP displacement
human Y4 receptor [2] = target: T1, human Y4 receptor; test: 125I-PP displacement; remark: listed apart in the source

T1 sequence (P50391 whole entry): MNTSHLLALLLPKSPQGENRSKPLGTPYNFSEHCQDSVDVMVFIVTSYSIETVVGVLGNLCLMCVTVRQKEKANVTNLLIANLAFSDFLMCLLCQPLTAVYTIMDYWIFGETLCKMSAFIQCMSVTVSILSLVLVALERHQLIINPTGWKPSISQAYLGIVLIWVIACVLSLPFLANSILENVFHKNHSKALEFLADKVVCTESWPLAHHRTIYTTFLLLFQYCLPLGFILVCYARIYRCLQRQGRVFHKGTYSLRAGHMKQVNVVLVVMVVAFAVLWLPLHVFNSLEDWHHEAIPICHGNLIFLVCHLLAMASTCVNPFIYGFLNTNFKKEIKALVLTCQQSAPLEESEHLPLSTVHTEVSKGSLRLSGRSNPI

B1: 7255 (peptide)
chain: PAPLEPKYPGDDATPQQMARYAAELRRYINKLTRPRY
IC50 (human Y4 receptor [1]): 0.091 nM

B2: 4055197 (peptide)
chain: KPLEPVYPGDDATPQQMAQYAAELRRYINMLTRPRY
IC50 (human Y4 receptor [1]): 0.62 nM

B3: 7256 (peptide)
chain: PAPLEPEYPGDDATPQQMARYAAELRRYINILTRPRY
IC50 (human Y4 receptor [1]): 0.132 nM

B4: 4055407 (peptide)
chain: APLEPEYPGDDATPEQMAEYAADLRRYINMLTRPRY
IC50 (human Y4 receptor [1]): 0.29 nM

B5: 7254 (peptide)
chain: PAPLEPEYPGDNATPEQMARYAAELRRYINKLTRPRY
IC50 (human Y4 receptor [1]): 0.109 nM

B6: 4055196 (peptide)
chain: KPLEPVYPGDDATPQQMAQYAAELRRYINMLTRPRY
IC50 (human Y4 receptor [1]): 0.33 nM

B7: 6840 (peptide)
chain: AAPLEPVYPGDNATPEELNHYYSALRRYINMLTRPRY
IC50 (human Y4 receptor [2]): 0.17 nM

B8: 6810 (peptide)
chain: APLEPFYPGDNATPEQMAQYAAALRRYINLLTRPRY
IC50 (human Y4 receptor [2]): 0.11 nM

B9: compound of SEQ ID NO:62 (code 6659) (peptide)
peptide: APLEPVYPGDNATPEQMAQYAADLRRYINMLTRPHRY
modifications: ends and bridges not checked
IC50 (human Y4 receptor [2]): 0.17 nM

B10: 6865 (peptide)
chain: PAPLEPVYPGDDATPQQMAQYAAELRRYINMLTRPRY
IC50 (human Y4 receptor [2]): 0.29 nM

B11: 6667 (peptide)
chain: APLEPVYPGDDATPQQMAQYAAEMRRYINMLTRPRY
IC50 (human Y4 receptor [2]): 0.18 nM

B12: 6835 (peptide)
chain: APLEPVYPGDNATPEQMAQYAADLRRYINMCTRPRY
IC50 (human Y4 receptor [2]): 0.26 nM

B13: 6819 (peptide)
chain: APLEPEYPGDDATPQQMAQYAAELRRYINMLTRPRY
IC50 (human Y4 receptor [2]): 0.14 nM

B14: 6827 (peptide)
chain: APLEPEYPGDDATPQQMARYAAELRRYINMLTRPRY
IC50 (human Y4 receptor [2]): 0.07 nM

B15: 6844 (peptide)
chain: APLEPFYPGDNATPEEIVKYYSALRRYINMLTRPRY
IC50 (human Y4 receptor [2]): 0.19 nM

B16: 6812 (peptide)
chain: APLEPVYPGDDATPQQMAQYAAELRRYINLLTRPRY
IC50 (human Y4 receptor [2]): 0.24 nM

B17: 6863 (peptide)
chain: AAPLEPVYPGDNATPEELVKYYSALRRYINMLTRPRY
IC50 (human Y4 receptor [2]): 0.16 nM

B18: 6849 (peptide)
chain: APLEPVYPGDNATPEELVKYFIELRRYINMLTRPRY
IC50 (human Y4 receptor [2]): 0.15 nM

B19: 6806 (peptide)
chain: YYYAPLEPVYPGDYATPEQRAQYETQLRRYINTLTRPRY
IC50 (human Y4 receptor [2]): 0.19 nM

B20: 6816 (peptide)
chain: APLEPFYPGDDATPQQMARYAAELRRYINMLTRPRY
IC50 (human Y4 receptor [2]): 0.15 nM

B21: 6808 (peptide)
chain: YYYAPLEPVYPGDNATPEQRAQYAADLRRYINTLTRPRY
IC50 (human Y4 receptor [2]): 0.15 nM

B22: 6828 (peptide)
chain: APLEPFYPGDNATPEQMARYAAELRRYINMLTRPRY
IC50 (human Y4 receptor [2]): 0.12 nM

B23: 6673 (peptide)
chain: APLEPVYPGDNATPEELNRYYASLRKYINMLTRPRY
IC50 (human Y4 receptor [2]): 0.16 nM

B24: 6811 (peptide)
chain: AAPLEPFYPGDNATPEQMAQYAAALRRYINLLTRPRY
IC50 (human Y4 receptor [2]): 0.2 nM

B25: 6669 (peptide)
chain: AAPLEPVYPGDNATPEQMAQYAADLRKYINLLTRPRY
IC50 (human Y4 receptor [2]): 0.32 nM

B26: 6839 (peptide)
chain: APLEPVYPGDNATPEELNHYYSALRRYINMLTRPRY
IC50 (human Y4 receptor [2]): 0.12 nM

B27: 6857 (peptide)
chain: HAPLEPVYPGDNATPEELNQYYASLRRYINMLTRPRY
IC50 (human Y4 receptor [2]): 0.22 nM

B28: compound of SEQ ID NO:73 (code 6675) (peptide)
peptide: KPLEPVYPGDNATPEELNRYYASLRRYINMLTRPRY
IC50 (human Y4 receptor [2]): 0.089 nM

B29: 6666 (peptide)
chain: PLEPVYPGDDATPQQMAQYAAALRRYINMLTRPRY
IC50 (human Y4 receptor [2]): 0.11 nM

B30: 6657 (peptide)
chain: AAPLEPVYPGDNATPEQLAQYAADLRRYINLLTRPRY
IC50 (human Y4 receptor [2]): 0.25 nM

B31: 6850 (peptide)
chain: APLEPVYPGDNATPEELVKYFVGLRRYINMLTRPRY
IC50 (human Y4 receptor [2]): 0.17 nM

B32: 6814 (peptide)
chain: AAPLEPVYPGDDATPQQMAQYAAELRKYINMLTRPRY
IC50 (human Y4 receptor [2]): 0.22 nM

B33: 6658 (peptide)
chain: AAPLEPVYPGDNATPEQMAQYAADLRRYINTLTRPRY
IC50 (human Y4 receptor [2]): 0.16 nM

B34: 6848 (peptide)
chain: APLEPVYPGDNATPEELVKYFSALRRYINMLTRPRY
IC50 (human Y4 receptor [2]): 0.12 nM

B35: 6817 (peptide)
chain: APLEPFYPGDDATPQQMAQYAAELRRYINMLTRPRY
IC50 (human Y4 receptor [2]): 0.2 nM

B36: 6860 (peptide)
chain: HAPLEPVYPGDNATPEELVKYYSALRRYINMLTRPRY
IC50 (human Y4 receptor [2]): 0.11 nM

B37: 6843 (peptide)
chain: APLEPFYPGDNATPEELVKYYSALRRYINMLTRPRY
IC50 (human Y4 receptor [2]): 0.17 nM

B38: 6818 (peptide)
chain: AAPLEPFYPGDDATPQQMAQYAAELRRYINMLTRPRY
IC50 (human Y4 receptor [2]): 0.15 nM

B39: 6836 (peptide)
chain: CAPLEPVYPGDNATPEQMAQYAADLRRYINMLTRPRY
IC50 (human Y4 receptor [2]): 0.69 nM

B40: 6665 (peptide)
chain: AAPLEPFYPGDDATPQQMAQYAAALRRYINMLTRPRY
IC50 (human Y4 receptor [2]): 0.12 nM

B41: 6846 (peptide)
chain: APLEPFYPGDNATPEELVKYYASLRRYINMLTRPRY
IC50 (human Y4 receptor [2]): 0.15 nM

B42: 6807 (peptide)
chain: APLEPVYPGDNATPEQRAQYAADLRRYINTLTRPRY
IC50 (human Y4 receptor [2]): 0.19 nM

B43: 6671 (peptide)
chain: AAPLEPVYPGDNATPEELNRYYASLRRYINMLTRPRY
IC50 (human Y4 receptor [2]): 0.11 nM
